± gives the standard error. For part of these data: This sample holds only a part of the variants without activity.
B1: glmS ribozyme (parent)
chain: AUAAAAGCGCCAGAACUACAGAAAUGUAGUUGACGAGGAGGAGGUUUAUCGAAUUUUCGGCGGAUGCCUCCAAA

What was measured:
Conditions in all cases: with glucosamine-6-phosphate
[1] = variants of: B1; test: kcat; higher = faster cleavage; RNA array
How it was run: (§1)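 Barcoded ribozyme variants, transcribed in situ by E. coli RNA polymerase on sequenced MiSeq chips, were followed via a hybridised Cy3 probe at 37 °C. Glucosamine-6-phosphate ranged from 40 μM to 10 mM in HEPES/KCl/Mg(OAc)2 buffer. kobs came from decay fits to per-tile medians, and kcat and KM from weighted Michaelis–Menten fits.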

[2] = variants of: B1; test: KM; higher = weaker cofactor use; RNA array
How it was run: as §1

[3] = variants of: B1; test: self-cleavage kobs at 640 uM GlcN6P; higher = faster cleavage; RNA array
How it was run: as §1

[4] = variants of: B1; test: self-cleavage kobs at 2500 uM GlcN6P; higher = faster cleavage; RNA array
How it was run: as §1

[5] = variants of: B1; test: self-cleavage kobs at 10000 uM GlcN6P; higher = faster cleavage; RNA array
How it was run: as §1

[6] = variants of: B1; test: self-cleavage kobs at 40 uM GlcN6P; higher = faster cleavage; RNA array
How it was run: as §1

[7] = variants of: B1; test: self-cleavage kobs at 160 uM GlcN6P; higher = faster cleavage; RNA array
How it was run: as §1

Row | Variant | kcat [1] | KM [2] | self-cleavage kobs at 640 uM GlcN6P [3] | self-cleavage kobs at 2500 uM GlcN6P [4] | self-cleavage kobs at 10000 uM GlcN6P [5] | self-cleavage kobs at 40 uM GlcN6P [6] | self-cleavage kobs at 160 uM GlcN6P [7]
1 | U65C C71U | 0.000792 ± 0.00011 s⁻¹ | 1460 ± 510 µM | 0.000236 ± 4.3e-05 s⁻¹ | 0.000617 ± 0.00011 s⁻¹ | 0.000659 ± 8e-05 s⁻¹ | – | –
2 | A14U A15G G43A | 1.46e-05 ± 6.9e-06 s⁻¹ | – | – | – | – | – | –
3 | A33U A53U G66A | 7.62e-05 ± 1.7e-06 s⁻¹ | – | – | – | – | – | –
4 | A15U U30C | 0.000145 ± 1.2e-05 s⁻¹ | 2410 ± 450 µM | 3.48e-05 ± 6.3e-06 s⁻¹ | 6.99e-05 ± 6.6e-06 s⁻¹ | 0.00012 ± 1.1e-05 s⁻¹ | – | –
5 | U57A C58U | 6.53e-05 ± 2.8e-06 s⁻¹ | – | – | – | 2.39e-05 ± 8.3e-06 s⁻¹ | – | –
6 | C8A G37U C70A | 0.00017 ± 4.3e-05 s⁻¹ | – | 0.000214 ± 6.2e-05 s⁻¹ | 0.000331 ± 0.00011 s⁻¹ | 0.000139 ± 3.4e-05 s⁻¹ | 7.9e-05 ± 2.3e-05 s⁻¹ | –
7 | G13U A53G | 0.0022 ± 0.00047 s⁻¹ | 4460 ± 1300 µM | 0.00029 ± 3.4e-05 s⁻¹ | 0.000631 ± 9.5e-05 s⁻¹ | 0.00168 ± 0.0002 s⁻¹ | 2.14e-05 ± 9.7e-06 s⁻¹ | 8.17e-05 ± 1e-05 s⁻¹
8 | A36G U69G | 2.8e-05 ± 8.7e-06 s⁻¹ | – | 4.85e-05 ± 1.9e-05 s⁻¹ | – | – | – | 3.18e-05 ± 1.6e-05 s⁻¹
9 | U30A C70G | 8.36e-05 ± 9.7e-06 s⁻¹ | – | 6.45e-05 ± 1.5e-05 s⁻¹ | 0.000108 ± 2.6e-05 s⁻¹ | 8.03e-05 ± 1.3e-05 s⁻¹ | – | 6.81e-05 ± 1.8e-05 s⁻¹
10 | G63U C67U | < 1e-05 s⁻¹ | – | < 1e-05 s⁻¹ | – | – | < 1e-05 s⁻¹ | –
11 | A6C G13A A36U U56G | < 1e-05 s⁻¹ | – | – | < 1e-05 s⁻¹ | – | < 1e-05 s⁻¹ | –
12 | C67U C71U | 0.00245 ± 0.0012 s⁻¹ | – | 0.000403 ± 3.1e-05 s⁻¹ | 0.00121 ± 0.00026 s⁻¹ | 0.00213 ± 0.00029 s⁻¹ | 6.24e-05 ± 6.8e-06 s⁻¹ | 0.000128 ± 1.6e-05 s⁻¹
13 | A42G U47C | 0.00858 ± 0.0022 s⁻¹ | 6280 ± 2000 µM | 0.00074 ± 0.00014 s⁻¹ | 0.00232 ± 0.00039 s⁻¹ | 0.00583 ± 0.0016 s⁻¹ | 6.46e-05 ± 2.1e-05 s⁻¹ | 0.000257 ± 7.7e-05 s⁻¹
14 | A12C U47A | 0.011 ± 0.0034 s⁻¹ | 1620 ± 740 µM | 0.00346 ± 0.00056 s⁻¹ | 0.00529 ± 0.00087 s⁻¹ | 0.014 ± 0.0025 s⁻¹ | 0.000246 ± 4.3e-05 s⁻¹ | 0.00131 ± 0.00027 s⁻¹
15 | G13C C16A | 0.000101 ± 1.7e-06 s⁻¹ | 712 ± 55 µM | 4.82e-05 ± 1.7e-05 s⁻¹ | 7.81e-05 ± 1.4e-05 s⁻¹ | 9.42e-05 ± 1.4e-05 s⁻¹ | – | –
16 | C50A C68G | 5.05e-05 ± 1.7e-05 s⁻¹ | – | 8.11e-05 ± 1.6e-05 s⁻¹ | 5.89e-05 ± 1e-05 s⁻¹ | – | 2.54e-05 ± 1e-05 s⁻¹ | 6.35e-05 ± 1.2e-05 s⁻¹
17 | A33U G66C | 1.44e-05 ± 2.1e-06 s⁻¹ | 3040 ± 1500 µM | – | – | – | – | –

Reference: the supplement of paper PMC7125110
